Source: patent US20210340264A1

Target: human SSTR2 (isoform A, UniProtKB P30874) (human) (UniProt P30874)
Test: flow cytometry, BON-1 cells, same staining conditions (FIG. 10B)

Chain of human SSTR2 (P30874 whole entry, canonical isoform): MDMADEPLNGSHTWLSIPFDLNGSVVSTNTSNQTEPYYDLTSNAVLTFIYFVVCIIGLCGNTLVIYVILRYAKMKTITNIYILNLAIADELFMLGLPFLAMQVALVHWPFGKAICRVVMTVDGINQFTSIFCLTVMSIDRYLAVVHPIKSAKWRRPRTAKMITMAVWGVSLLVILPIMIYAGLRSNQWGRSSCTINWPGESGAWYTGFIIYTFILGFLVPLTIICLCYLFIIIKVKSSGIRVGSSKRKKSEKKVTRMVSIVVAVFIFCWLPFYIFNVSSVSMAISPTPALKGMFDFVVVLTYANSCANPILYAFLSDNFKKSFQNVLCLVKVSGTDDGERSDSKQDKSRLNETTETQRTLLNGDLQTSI

surface binding percentage: 38%
Substance: commercial anti-SSTR2 mAb (R&D Systems, Catalog# MAB4224) (antibody)
